In patent US20090130105A1 (Biogen, published 2009):

Legend:
[1] = target: T1, human IGF-1R on H322M non-small cell lung cancer cells (human, UniProt P08069 31-1367); assay: flow cytometry on H322M cells, anti-human Fab PE secondary (FIG. 55A)
T1 construct: Endogenous receptor of the tumor cell line; also called cell surface IGF-1R
Method: (§1) Cell lines were routinely cultured no greater than 20 passages. Flow cyotometric analysis of antibody binding to human cancer cells. Cells were lifted with cell dissociation buffer (Gibco catalog #13151-014), counted, washed and adjusted to 5×10⁶ cells/ml. Cells (2.5×10⁵; 50 uL) were added to each well of a 96-well round bottom plate (Costar #3799). Purified antibodies were tested at a starting concentration of 300 nM with serial half-log dilutions in FACS buffer. FACS buffer used throughout the assay was PBS (without Ca++/Mg++) containing 5% FBS. Samples were incubated on ice for 30 minutes, washed 3× with 200 uL FACS buffer and centrifuged at 1200 rpm for 3 minutes at 4° C. C2B8 (rituximab, IgG1) was used as a negative control. […] Samples were incubated for an additional 30 minutes on ice, shielded from light. Cells were washed as described above and resuspended in 100 μl FACS buffer containing propidium iodide (PI) for dead cell exclusion (BD Pharmingen, catalog# 51-66211E or 556463; use at 1:500 final in FACS buffer). Samples were run in triplicate using the FACSArray flow cytometer (Becton Dickinson) with 5000 live events collected per sample. Data analysis was performed using the GraphPad Prism version 5.0 software (GraphPad Software Inc., 11452 El Camino Real #215, San Diego, Calif. 92130). Results. […]

[2] = target: T2, hIGF-1R-Fc mutant SD015 (H464E) (human, UniProt P08069 31-933); assay: SPR (Biacore relative RUmax) and tr-FRET competition
T2 construct: not shown: human IgG1 Fc, C-terminal tag
T2 sequence (P08069 31-933 H494E): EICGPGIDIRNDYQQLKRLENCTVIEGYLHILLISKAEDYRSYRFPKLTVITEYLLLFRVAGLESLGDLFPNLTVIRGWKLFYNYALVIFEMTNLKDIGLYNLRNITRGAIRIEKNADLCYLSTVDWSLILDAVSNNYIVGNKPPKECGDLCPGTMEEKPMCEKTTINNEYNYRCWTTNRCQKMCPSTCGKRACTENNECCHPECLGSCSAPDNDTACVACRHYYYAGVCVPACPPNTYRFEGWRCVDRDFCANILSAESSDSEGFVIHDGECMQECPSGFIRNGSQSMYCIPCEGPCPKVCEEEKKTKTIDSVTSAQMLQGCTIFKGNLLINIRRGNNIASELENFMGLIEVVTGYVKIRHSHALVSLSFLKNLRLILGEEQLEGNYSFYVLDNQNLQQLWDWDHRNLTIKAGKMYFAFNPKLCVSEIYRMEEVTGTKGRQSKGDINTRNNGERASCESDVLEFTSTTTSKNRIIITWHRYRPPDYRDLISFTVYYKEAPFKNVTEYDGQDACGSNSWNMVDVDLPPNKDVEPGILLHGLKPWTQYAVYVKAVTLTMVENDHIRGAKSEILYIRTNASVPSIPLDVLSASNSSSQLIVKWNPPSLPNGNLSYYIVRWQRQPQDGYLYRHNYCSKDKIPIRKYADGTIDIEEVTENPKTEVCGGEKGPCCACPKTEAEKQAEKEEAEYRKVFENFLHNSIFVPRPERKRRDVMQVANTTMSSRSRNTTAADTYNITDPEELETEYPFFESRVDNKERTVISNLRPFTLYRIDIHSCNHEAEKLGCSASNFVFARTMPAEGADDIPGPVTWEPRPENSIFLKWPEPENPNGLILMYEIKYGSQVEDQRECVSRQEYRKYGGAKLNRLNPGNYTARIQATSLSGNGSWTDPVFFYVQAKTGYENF
Method: (§2) After, completion of the receptor-Fc loading step, flow rates were elevated to 5 μl/min. […] At the end of each sensorgram, the flow rate was elevated to 30 μl/min and the chip surface was regenerated by 2×10 μL injections of 0.1 M glycine, pH 2.

[3] = target: T3, human IGF-1R(1-903)-Fc (human, UniProt P08069 31-933); assay: ELISA, blocking of IGF-2 His (640 nM by the table head) on biotinylated hIGF-1R-Fc
T3 construct: also called hIGF-1R-Fc; SDWT; not shown: human IgG1 Fc, C-terminal tag
T3 sequence (P08069 31-933): as the sequence (P08069 31-933 H494E) above, with E464H counted along it

[4] = target: T1, human IGF-1R on H322M non-small cell …; assay: flow cytometry on H322M cells
Method: as §1

[5] = target: T4, sIGF-1R(1-903) (human, UniProt P08069 31-933); assay: SEC with static light scattering
T4 construct: also called soluble IGF-1R ectodomain
T4 sequence (P08069 31-933): as the sequence (P08069 31-933 H494E) above, with E464H counted along it
Method: Analytical size exclusion chromatography (SEC) with in-line static light scattering. […] All samples contained 25 μg of each protein diluted to a final volume of 50 μL in PBS, pH 7.2, before injection onto the SEC column onto a TSKgel G3000SW XL, 5 mm, 250 Å Analytical SEC column (Tosoh Biosciences) equilibrated in 10 mM phosphate, 150 mM NaCl, 0.02% sodium Azide at pH 6.8 using an Agilent 1100 HPLC system. Light scattering data for material eluting from the SEC column were collected using a miniDAWN static light scattering detector coupled to an in-line refractive index meter (Wyatt Technologies). Light scattering data were analyzed using the ASTRA V software provided by the manufacturer.
All samples were diluted to a final volume of 50 μL in PBS, pH 7.2 before SEC/static light scattering analysis.

[6] = target: T3, human IGF-1R(1-903)-Fc; assay: IGF-2 blocking ELISA: antibody titrated in 640 nM IGF-2 His on biotinylated hIGF-1R-Fc on streptavidin plates, bound ligand detected with anti-His-HRP
[7] = target: T5, hIGF-1R-Fc mutant SD006 (A227K) (human, UniProt P08069 31-933); assay: SPR: receptor-Fc captured on M13-C06 chip, then M13-C06 Fab; relative to wild type
T5 construct: not shown: human IgG1 Fc, C-terminal tag
T5 sequence (P08069 31-933 A257K): as the sequence (P08069 31-933 H494E) above, with A227K, E464H counted along it
Method: as §2

[8] = target: T6, hIGF-1R-Fc mutant SD008 (S257F) (human, UniProt P08069 31-933); assay: as above
T6 construct: not shown: human IgG1 Fc, C-terminal tag
T6 sequence (P08069 31-933 S287F): as the sequence (P08069 31-933 H494E) above, with S257F, E464H counted along it
Method: as §2

[9] = target: T7, hIGF-1R-Fc mutant SD016 (D531Q, V532N) (human, UniProt P08069 31-933); assay: as above
T7 construct: not shown: human IgG1 Fc, C-terminal tag
T7 sequence (P08069 31-933 D561Q/V562N): as the sequence (P08069 31-933 H494E) above, with E464H, D531Q, V532N counted along it
Method: as §2

[10] = target: T8, hIGF-1R-Fc mutant SD018 (E665A) (human, UniProt P08069 31-933); assay: as above
T8 construct: not shown: human IgG1 Fc, C-terminal tag
T8 sequence (P08069 31-933 E695A): as the sequence (P08069 31-933 H494E) above, with E464H, E665A counted along it
Method: as §2

[11] = target: T9, hIGF-1R-Fc mutant SD001 (Y28A) (human, UniProt P08069 31-933); assay: as above
T9 construct: not shown: human IgG1 Fc, C-terminal tag
T9 sequence (P08069 31-933 Y58A): as the sequence (P08069 31-933 H494E) above, with Y28A, E464H counted along it
Method: as §2

[12] = target: T10, hIGF-1R-Fc mutant SD019 (E739W, L741F) (human, UniProt P08069 31-933); assay: as above
T10 construct: not shown: human IgG1 Fc, C-terminal tag
T10 sequence (P08069 31-933 E769W/L771F): as the sequence (P08069 31-933 H494E) above, with E464H, E739W, L741F counted along it
Method: as §2

[13] = target: T11, hIGF-1R-Fc mutant SD014 (K412A, A413Q) (human, UniProt P08069 31-933); assay: as above
T11 construct: not shown: human IgG1 Fc, C-terminal tag
T11 sequence (P08069 31-933 K442A/A443Q): as the sequence (P08069 31-933 H494E) above, with K412A, A413Q, E464H counted along it
Method: as §2

[14] = target: T12, hIGF-1R-Fc mutant SD012 (E303G) (human, UniProt P08069 31-933); assay: as above
T12 construct: not shown: human IgG1 Fc, C-terminal tag
T12 sequence (P08069 31-933 E333G): as the sequence (P08069 31-933 H494E) above, with E303G, E464H counted along it
Method: as §2

[15] = target: T13, hIGF-1R-Fc mutant SD002 (M156A) (human, UniProt P08069 31-933); assay: as above
T13 construct: not shown: human IgG1 Fc, C-terminal tag
T13 sequence (P08069 31-933 M186A): as the sequence (P08069 31-933 H494E) above, with M156A, E464H counted along it
Method: as §2

[16] = target: T14, hIGF-1R-Fc mutant SD017 (I650S) (human, UniProt P08069 31-933); assay: as above
T14 construct: not shown: human IgG1 Fc, C-terminal tag
T14 sequence (P08069 31-933 I680S): as the sequence (P08069 31-933 H494E) above, with E464H, I650S counted along it
Method: as §2

[17] = target: T2, hIGF-1R-Fc mutant SD015 (H464E); assay: SPR (Biacore 3000): SD015 captured on immobilized M13-C06 surface, M13-C06 (Fab according to paragraph 695) injected at 0, 1, 3, 10 nM
Method: as §2

T1 sequence (P08069 31-1367, stated change not applied): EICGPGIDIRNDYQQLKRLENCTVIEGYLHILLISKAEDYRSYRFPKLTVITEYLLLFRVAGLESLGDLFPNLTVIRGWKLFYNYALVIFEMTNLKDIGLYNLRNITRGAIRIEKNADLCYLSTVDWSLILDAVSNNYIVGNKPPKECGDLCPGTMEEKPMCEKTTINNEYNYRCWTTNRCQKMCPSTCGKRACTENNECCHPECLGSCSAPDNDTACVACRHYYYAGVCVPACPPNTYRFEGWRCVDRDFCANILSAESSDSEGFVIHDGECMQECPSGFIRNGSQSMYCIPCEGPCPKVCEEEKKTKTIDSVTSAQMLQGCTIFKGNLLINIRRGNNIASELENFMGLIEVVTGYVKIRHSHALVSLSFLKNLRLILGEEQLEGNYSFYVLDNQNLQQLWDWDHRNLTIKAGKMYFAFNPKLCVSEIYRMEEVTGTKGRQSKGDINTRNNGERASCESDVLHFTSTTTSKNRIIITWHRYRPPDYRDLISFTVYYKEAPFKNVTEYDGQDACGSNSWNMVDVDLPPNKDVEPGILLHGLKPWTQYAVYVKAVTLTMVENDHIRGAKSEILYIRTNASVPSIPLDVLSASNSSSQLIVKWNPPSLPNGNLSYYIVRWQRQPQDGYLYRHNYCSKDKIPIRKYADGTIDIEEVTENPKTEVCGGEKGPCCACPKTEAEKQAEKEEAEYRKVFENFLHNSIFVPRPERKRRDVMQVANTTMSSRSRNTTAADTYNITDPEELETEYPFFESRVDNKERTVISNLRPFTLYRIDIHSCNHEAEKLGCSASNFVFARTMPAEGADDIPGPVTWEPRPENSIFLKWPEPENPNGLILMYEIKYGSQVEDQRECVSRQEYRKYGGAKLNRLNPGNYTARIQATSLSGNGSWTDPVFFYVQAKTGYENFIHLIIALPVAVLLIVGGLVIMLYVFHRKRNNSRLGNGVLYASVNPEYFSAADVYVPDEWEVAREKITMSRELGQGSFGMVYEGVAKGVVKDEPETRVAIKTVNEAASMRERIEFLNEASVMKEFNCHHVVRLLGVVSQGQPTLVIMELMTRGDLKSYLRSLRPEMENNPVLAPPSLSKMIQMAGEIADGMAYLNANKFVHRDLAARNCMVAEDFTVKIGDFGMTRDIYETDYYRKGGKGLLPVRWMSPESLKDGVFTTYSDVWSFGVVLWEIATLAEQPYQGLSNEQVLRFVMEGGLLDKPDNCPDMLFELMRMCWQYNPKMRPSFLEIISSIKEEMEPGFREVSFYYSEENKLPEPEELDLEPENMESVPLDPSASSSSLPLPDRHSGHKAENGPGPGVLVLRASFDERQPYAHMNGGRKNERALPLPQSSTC

EC50 [1] [nM]	binding result [2]	IC50 [3] [nM]	EC50 [4] [nM]	molecular weight of the complex [5] [MDa]	IC50 (read off the curve) [6] [nM]	Biacore Relative RUmax [7]	Biacore Relative RUmax [8]	Biacore Relative RUmax [9]	Biacore Relative RUmax [10]	Biacore Relative RUmax [11]	Biacore Relative RUmax [12]	Biacore Relative RUmax [13]	Biacore Relative RUmax [14]	Biacore Relative RUmax [15]	Biacore Relative RUmax [16]	binding result [17]	Binder
0.2	no binding	1.9	< 1	2	~1	–	–	–	–	–	–	–	–	–	–	–	M13-C06 antibody (antibody, V domains shown, Fully human full-length antibody (ATCC PTA-7444); also called M13.C06.G4.P.agly; M13-C06.G4P.agly) VH: EVQLLESGGGLVQPGGSLRLSCAASGFTFSIYRMQWVRQAPGKGLEWVSGISPSGGTTWYADSVKGRFTISRDNSKNTLYLQMNSLRAEDTAVYYCARWSGGSGYAFDIWGQGTMVTVSS VL: DIQMTQSPLSLSASVGDRVTITCQASRDIRNYLNWYQQKPGKAPKLLIYDASSLQTGVPSRFGGSGSGTDFSFTIGSLQPEDIATYYCQQFDSLPHTFGQGTKLEIK
–	–	–	–	–	–	1.7	1.5	2	1.7	0.6	1.9	0.6	0.3	1.2	2	no binding (tested: 10 nM)	M13-C06 Fab (Fab, V domains shown, Fab made by enzymatic digestion of the IgG) VH: EVQLLESGGGLVQPGGSLRLSCAASGFTFSIYRMQWVRQAPGKGLEWVSGISPSGGTTWYADSVKGRFTISRDNSKNTLYLQMNSLRAEDTAVYYCARWSGGSGYAFDIWGQGTMVTVSS VL: DIQMTQSPLSLSASVGDRVTITCQASRDIRNYLNWYQQKPGKAPKLLIYDASSLQTGVPSRFGGSGSGTDFSFTIGSLQPEDIATYYCQQFDSLPHTFGQGTKLEIK
